Data as given in publication PMC4176178, “An evolutionarily conserved interaction of tumor suppressor protein Pdcd4 with the poly(A)-binding protein contributes to translation suppression by Pdcd4” (Nucleic Acids Research, 2014).

T1: GST-Pdcd4 (full-length human Pdcd4 fused to GST) (human, UniProt Q53EL6 1-469)
T1 construct: programmed cell death 4 (Pdcd4), human, full length; also called GST-Pdcd4-wt; pGex-6P2-hPdcd4wt; source: purified
T1 sequence (looked up): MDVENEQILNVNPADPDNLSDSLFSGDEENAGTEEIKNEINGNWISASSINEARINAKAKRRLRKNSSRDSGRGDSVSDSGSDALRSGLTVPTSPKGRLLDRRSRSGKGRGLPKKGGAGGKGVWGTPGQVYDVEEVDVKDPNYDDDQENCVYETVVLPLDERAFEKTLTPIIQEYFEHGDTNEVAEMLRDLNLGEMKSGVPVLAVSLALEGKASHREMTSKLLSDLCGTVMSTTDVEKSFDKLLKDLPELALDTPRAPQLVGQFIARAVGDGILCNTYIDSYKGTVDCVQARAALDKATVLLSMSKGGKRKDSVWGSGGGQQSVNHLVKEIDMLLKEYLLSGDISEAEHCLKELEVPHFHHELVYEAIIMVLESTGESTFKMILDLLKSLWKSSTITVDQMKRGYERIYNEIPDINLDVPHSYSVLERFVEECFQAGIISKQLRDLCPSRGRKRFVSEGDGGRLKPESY

B1: mouse His-PABP-RRM1–4 (amino acids 1–375) (domain or fragment, UniProt P29341 1-375, looked up)
chain: MNPSAPSYPMASLYVGDLHPDVTEAMLYEKFSPAGPILSIRVCRDMITRRSLGYAYVNFQQPADAERALDTMNFDVIKGKPVRIMWSQRDPSLRKSGVGNIFIKNLDKSIDNKALYDTFSAFGNILSCKVVCDENGSKGYGFVHFETQEAAERAIEKMNGMLLNDRKVFVGRFKSRKEREAELGARAKEFTNVYIKNFGEDMDDERLKELFGKFGPALSVKVMTDESGKSKGFGFVSFERHEDAQKAVDEMNGKELNGKQIYVGRAQKKVERQTELKRKFEQMKQDRITRYQGVNLYVKNLDDGIDDERLRKEFSPFGTITSAKVMMEGGRSKGFGFVCFSSPEEATKAVTEMNGRIVATKPLYVALAQRKEERQ
notes: Vector was a gift from Lorna Waters; source: bacterially expressed, purified (Ni-NTA)

Assays:
[1] = target: B1; experiment: pull-down; GST fusion protein-loaded sepharose beads incubated with purified, bacterially expressed His-PABP-RRM1–4; western blotting with PABP antibodies or Coomassie staining; also in the absence or presence of 0.5 μg/ml RNase A; conditions: both partners purified
[2] = target: T1, GST-Pdcd4 (full-length human Pdcd4 …); experiment: as above; conditions: both partners purified

binding result [1] | binding result [2] | Binder
binds |  | GST-Pdcd4-RBDstop (only the N-terminal RNA-binding domain of human Pdcd4) (domain or fragment, UniProt Q53EL6 1-154, looked up, translation stop codon introduced at amino acid position 155; The last residue 154 follows from the stop codon at position 155; also called pGex-6P2-hPdcd4-RBDstop; source: purified) MDVENEQILNVNPADPDNLSDSLFSGDEENAGTEEIKNEINGNWISASSINEARINAKAKRRLRKNSSRDSGRGDSVSDSGSDALRSGLTVPTSPKGRLLDRRSRSGKGRGLPKKGGAGGKGVWGTPGQVYDVEEVDVKDPNYDDDQENCVYET
 | binds | B1
